Measured values reported in patent publication US20160264649A1.

Legend:
Experiment in all cases: cell-based or functional assay
[1] = biological target: HIV-1 92BR020 Env (HIV-1)
[2] = biological target: HIV-1 92BR020 Env on pseudovirus (HIV-1)
[3] = biological target: HIV-1 92RW020 Env (HIV-1)
[4] = biological target: HIV-1 92UG001 Env (HIV-1)
[5] = biological target: HIV-1 92UG005 Env (HIV-1)
[6] = biological target: HIV-1 93IN905 Env (HIV-1)
[7] = biological target: HIV-1 93MW959 Env on pseudovirus (HIV-1)
[8] = biological target: HIV-1 93UG077 Env (HIV-1)
[9] = biological target: HIV-1 94UG103 Env (HIV-1)
[10] = biological target: HIV-1 97ZA012 Env on pseudovirus (HIV-1)
[11] = biological target: HIV-1 98CN006 Env on pseudovirus (HIV-1)
HIV-1 APV-6 Env (HIV-1) = biological target: HIV-1 APV-6 Env (HIV-1)
[12] = biological target: HIV-1 APV_17 Env on pseudovirus (HIV-1)
[13] = biological target: HIV-1 APV_6 Env on pseudovirus (HIV-1)
[14] = biological target: HIV-1 CAAN.A2 (Acute) Env on pseudovirus (HIV-1)
HIV-1 CMU02 Env (HIV-1) = biological target: HIV-1 CMU02 Env (HIV-1)
[15] = biological target: HIV-1 IAVI-C3 Env (HIV-1)
[16] = biological target: HIV-1 JRFL Env on pseudovirus (HIV-1)
[17] = biological target: HIV-1 MGRM-AE-001 Env (HIV-1)
[18] = biological target: HIV-1 MGRM-AE-002 Env (HIV-1)
[19] = biological target: HIV-1 MGRM-AG-002 Env (HIV-1)
[20] = biological target: HIV-1 MGRM-AG-008 Env (HIV-1)
[21] = biological target: HIV-1 MGRM-AG-009 Env (HIV-1)
[22] = biological target: HIV-1 MGRM-AG-011 Env (HIV-1)
[23] = biological target: HIV-1 MGRM-C-005 Env on pseudovirus (HIV-1)
[24] = biological target: HIV-1 MGRM-C-010 Env on pseudovirus (HIV-1)
[25] = biological target: HIV-1 MGRM-C-012 Env on pseudovirus (HIV-1)
[26] = biological target: HIV-1 MGRM-C-017 Env on pseudovirus (HIV-1)
[27] = biological target: HIV-1 MGRM-C-020 Env on pseudovirus (HIV-1)
[28] = biological target: HIV-1 MGRM-C-024 Env on pseudovirus (HIV-1)
[29] = biological target: HIV-1 MGRM-Chronic-B-001 Env on pseudovirus (HIV-1)
[30] = biological target: HIV-1 MGRM-Chronic-B-002 Env on pseudovirus (HIV-1)
[31] = biological target: HIV-1 MGRM-Chronic-B-004 Env on pseudovirus (HIV-1)
[32] = biological target: HIV-1 MGRM-Chronic-B-011 Env on pseudovirus (HIV-1)
[33] = biological target: HIV-1 MGRM-Chronic-B-018 Env on pseudovirus (HIV-1)
[34] = biological target: HIV-1 MGRM-D-005 Env (HIV-1)
[35] = biological target: HIV-1 MGRM-D-011 Env (HIV-1)
[36] = biological target: HIV-1 MGRM-D-028 Env (HIV-1)
[37] = biological target: HIV-1 MGRM-F1-004 Env (HIV-1)
[38] = biological target: HIV-1 MGRM-F1-008 Env (HIV-1)
[39] = biological target: HIV-1 MGRM-F1-014 Env (HIV-1)
[40] = biological target: HIV-1 MGRM-F1-015 Env (HIV-1)
[41] = biological target: HIV-1 MGRM-F1-016 Env (HIV-1)
[42] = biological target: HIV-1 MGRM-G-014 Env (HIV-1)
[43] = biological target: HIV-1 MGRM-G-019 Env (HIV-1)
[44] = biological target: HIV-1 MGRM-G-027 Env (HIV-1)
[45] = biological target: HIV-1 PVO.4 (Acute) Env on pseudovirus (HIV-1)
[46] = biological target: HIV-1 VLGCB3 Env on pseudovirus (HIV-1)
[47] = biological target: aMLV envelope (negative control pseudovirus)
aMLV envelope = biological target: aMLV envelope
[48] = biological target: HIV-1 MGRM-F1-010 Env (HIV-1)

2G12 (antibody)
neutralization IC50 [1]: 2.26 mg/L | neutralization IC90 [1]: 24.1 mg/L | IC50 [2]: 4.84 mg/L | neutralization IC50 [3]: 0.56 mg/L | neutralization IC90 [3]: 6.23 mg/L | IC50 (µg/ml), pseudovirus neutralization [4]: > 50 µg/mL | IC50 (µg/ml), pseudovirus neutralization [5]: > 50 µg/mL | neutralization IC50 [5]: > 50 mg/L | neutralization IC90 [5]: > 50 mg/L | neutralization IC50 [6]: > 50 mg/L | neutralization IC90 [6]: > 50 mg/L | IC50 [7]: > 50 mg/L | neutralization IC50 [8]: > 50 mg/L | neutralization IC90 [8]: > 50 mg/L | neutralization IC50 [9]: > 50 mg/L | neutralization IC90 [9]: > 50 mg/L | IC50 [10]: > 50 mg/L | IC50 [11]: > 50 mg/L | neutralization IC50 (HIV-1 APV-6 Env (HIV-1)): 5.3 mg/L | IC50 [12]: > 50 mg/L | IC50 [13]: 1.9 mg/L | IC50 [14]: > 50 mg/L | IC50 (µg/ml), pseudovirus neutralization (HIV-1 CMU02 Env (HIV-1)): > 50 µg/mL | neutralization IC50 (HIV-1 CMU02 Env (HIV-1)): > 50 mg/L | neutralization IC90 (HIV-1 CMU02 Env (HIV-1)): > 50 mg/L | neutralization IC50 [15]: > 50 mg/L | neutralization IC90 [15]: > 50 mg/L | IC50 [16]: 1.45 mg/L | IC50 (µg/ml), pseudovirus neutralization [17]: > 50 µg/mL | IC50 (µg/ml), pseudovirus neutralization [18]: > 50 µg/mL | IC50 (µg/ml), pseudovirus neutralization [19]: 0.54 µg/mL | IC50 (µg/ml), pseudovirus neutralization [20]: > 50 µg/mL | IC50 (µg/ml), pseudovirus neutralization [21]: > 50 µg/mL | IC50 (µg/ml), pseudovirus neutralization [22]: > 50 µg/mL | IC50 [23]: > 50 mg/L | IC50 [24]: > 50 mg/L | IC50 [25]: > 50 mg/L | IC50 [26]: > 50 mg/L | IC50 [27]: 18.6 mg/L | IC50 [28]: > 50 mg/L | IC50 [29]: 0.08 mg/L | IC50 [30]: > 50 mg/L | IC50 [31]: 8.65 mg/L | IC50 [32]: > 50 mg/L | IC50 [33]: > 50 mg/L | IC50 (µg/ml), pseudovirus neutralization [34]: 25.7 µg/mL | IC50 (µg/ml), pseudovirus neutralization [35]: 1.5 µg/mL | IC50 (µg/ml), pseudovirus neutralization [36]: > 50 µg/mL | IC50 (pseudovirus neutralization) [37]: > 50 mg/L | IC50 (pseudovirus neutralization) [38]: > 50 mg/L | IC50 (pseudovirus neutralization) [39]: > 50 mg/L | IC50 (pseudovirus neutralization) [40]: > 50 mg/L | IC50 (pseudovirus neutralization) [41]: > 50 mg/L | IC50 (µg/ml), pseudovirus neutralization [42]: > 50 µg/mL | IC50 (µg/ml), pseudovirus neutralization [43]: 31 µg/mL | IC50 (µg/ml), pseudovirus neutralization [44]: > 50 µg/mL | IC50 [45]: 0.8 mg/L | IC50 [46]: 7.9 mg/L | IC50 (pseudovirus neutralization) [47]: > 50 mg/L | neutralization IC50 (aMLV envelope): > 50 mg/L | neutralization IC90 (aMLV envelope): > 50 mg/L

1495_C14 (PGC14) (antibody)
neutralization IC50 [1]: 0.637 mg/L | IC50 [2]: 4 mg/L | neutralization IC50 [3]: 28.6 mg/L | IC50 (µg/ml), pseudovirus neutralization [4]: > 50 µg/mL | IC50 (µg/ml), pseudovirus neutralization [5]: > 50 µg/mL | neutralization IC50 [5]: > 50 mg/L | neutralization IC50 [6]: > 50 mg/L | IC50 [7]: > 50 mg/L | neutralization IC50 [8]: > 50 mg/L | neutralization IC50 [9]: > 50 mg/L | IC50 [10]: > 50 mg/L | IC50 [11]: > 50 mg/L | neutralization IC50 (HIV-1 APV-6 Env (HIV-1)): 7.41 mg/L | IC50 [12]: > 50 mg/L | IC50 [13]: 23 mg/L | IC50 [14]: > 50 mg/L | IC50 (µg/ml), pseudovirus neutralization (HIV-1 CMU02 Env (HIV-1)): > 50 µg/mL | neutralization IC50 (HIV-1 CMU02 Env (HIV-1)): > 50 mg/L | neutralization IC50 [15]: > 50 mg/L | IC50 [16]: > 50 mg/L | IC50 (µg/ml), pseudovirus neutralization [17]: > 50 µg/mL | IC50 (µg/ml), pseudovirus neutralization [18]: > 50 µg/mL | IC50 (µg/ml), pseudovirus neutralization [19]: > 50 µg/mL | IC50 (µg/ml), pseudovirus neutralization [20]: 45 µg/mL | IC50 (µg/ml), pseudovirus neutralization [21]: > 50 µg/mL | IC50 (µg/ml), pseudovirus neutralization [22]: > 50 µg/mL | IC50 [23]: > 50 mg/L | IC50 [24]: > 50 mg/L | IC50 [25]: > 50 mg/L | IC50 [26]: > 50 mg/L | IC50 [27]: > 50 mg/L | IC50 [28]: > 50 mg/L | IC50 [29]: > 50 mg/L | IC50 [30]: > 50 mg/L | IC50 [31]: > 50 mg/L | IC50 [32]: > 50 mg/L | IC50 [33]: > 50 mg/L | IC50 (µg/ml), pseudovirus neutralization [34]: > 50 µg/mL | IC50 (µg/ml), pseudovirus neutralization [35]: > 50 µg/mL | IC50 (µg/ml), pseudovirus neutralization [36]: > 50 µg/mL | IC50 (pseudovirus neutralization) [37]: > 50 mg/L | IC50 (pseudovirus neutralization) [38]: > 50 mg/L | IC50 (pseudovirus neutralization) [48]: > 50 mg/L | IC50 (pseudovirus neutralization) [39]: > 50 mg/L | IC50 (pseudovirus neutralization) [40]: > 50 mg/L | IC50 (pseudovirus neutralization) [41]: > 50 mg/L | IC50 (µg/ml), pseudovirus neutralization [42]: > 50 µg/mL | IC50 (µg/ml), pseudovirus neutralization [43]: > 50 µg/mL | IC50 (µg/ml), pseudovirus neutralization [44]: > 50 µg/mL | IC50 [45]: > 50 mg/L | IC50 [46]: 21 mg/L | IC50 (pseudovirus neutralization) [47]: > 50 mg/L | neutralization IC50 (aMLV envelope): > 50 mg/L

1496_C09 (PG9) (TCN-109) (antibody)
IC50, TZM-bl pseudovirus neutralization [3]: 0.1 mg/L | neutralization IC50 [3]: 0.0637 mg/L | neutralization IC90 [3]: 6.55 mg/L | IC50 (µg/ml), pseudovirus neutralization [4]: 41.8 µg/mL | neutralization IC90 [6]: 1.89 mg/L | IC50 [7]: 0.04 mg/L | neutralization IC50 [9]: 0.173 mg/L | neutralization IC90 [9]: 3.37 mg/L | IC50 [10]: 1.27 mg/L | neutralization IC50 (HIV-1 APV-6 Env (HIV-1)): 0.0869 mg/L | neutralization IC90 (HIV-1 APV-6 Env (HIV-1)): 1.96 mg/L | IC50 [12]: 14.6 mg/L | IC50 [13]: 0.12 mg/L | IC50 [14]: 5.67 mg/L | IC50 (µg/ml), pseudovirus neutralization (HIV-1 CMU02 Env (HIV-1)): 7.69 µg/mL | neutralization IC50 [15]: 12.9 mg/L | IC50 (µg/ml), pseudovirus neutralization [17]: 2.97 µg/mL | IC50 (µg/ml), pseudovirus neutralization [18]: 0.04 µg/mL | IC50 (µg/ml), pseudovirus neutralization [19]: 0.04 µg/mL | IC50 (µg/ml), pseudovirus neutralization [22]: 0.01 µg/mL | IC50 [23]: 2.98 mg/L | IC50 [24]: 12.4 mg/L | IC50 [25]: 0.24 mg/L | IC50 [26]: 1.52 mg/L | IC50 [28]: 0.22 mg/L | IC50 [30]: 1.41 mg/L | IC50 [33]: 0.16 mg/L | IC50 (µg/ml), pseudovirus neutralization [34]: 0.59 µg/mL | IC50 (µg/ml), pseudovirus neutralization [35]: 0.06 µg/mL | IC50 (µg/ml), pseudovirus neutralization [36]: 4.39 µg/mL | IC50 (pseudovirus neutralization) [48]: 0.03 mg/L | IC50 (pseudovirus neutralization) [39]: 0.01 mg/L | IC50 (pseudovirus neutralization) [41]: 0.58 mg/L | IC50 (µg/ml), pseudovirus neutralization [42]: 6.32 µg/mL | IC50 (µg/ml), pseudovirus neutralization [43]: 0.67 µg/mL | IC50 (µg/ml), pseudovirus neutralization [44]: 0.01 µg/mL | IC50 [45]: 4.01 mg/L
